# From the Human Domainome abundance scans (Beltran et al. 2025)
# ± gives the uncertainty stated by the source.
# Test: abundance fitness (aPCA) (normalised: wild type 0, dead -1); higher = more abundant; growth selection in yeast, the domain comes from the species named
# Conditions: Homo sapiens
row,Substance,abundance fitness
1,"NEDD4-like E3 ubiquitin-protein ligase WWP2 E457L, O00308",-0.204 ± 0.056
2,"NEDD4-like E3 ubiquitin-protein ligase WWP2 E480I, O00308",-0.042 ± 0.047
3,"NEDD4-like E3 ubiquitin-protein ligase WWP2 I441P, O00308",-0.503 ± 0.083
4,"NEDD4-like E3 ubiquitin-protein ligase WWP2 A490W, O00308",-0.185 ± 0.046
5,"NEDD4-like E3 ubiquitin-protein ligase WWP2 P475C, O00308",-1.06 ± 0.16
6,"NEDD4-like E3 ubiquitin-protein ligase WWP2 T469V, O00308",-0.151 ± 0.038
7,"NEDD4-like E3 ubiquitin-protein ligase WWP2 M440K, O00308",0.4 ± 0.12
8,"NEDD4-like E3 ubiquitin-protein ligase WWP2 G458M, O00308",-0.148 ± 0.041
9,"NEDD4-like E3 ubiquitin-protein ligase WWP2 Y454K, O00308",-0.015 ± 0.067
10,"NEDD4-like E3 ubiquitin-protein ligase WWP2 K473L, O00308",-0.165 ± 0.058
11,"NEDD4-like E3 ubiquitin-protein ligase WWP2 L446F, O00308",-0.011 ± 0.07
12,"NEDD4-like E3 ubiquitin-protein ligase WWP2 T470K, O00308",-0.356 ± 0.039
13,"NEDD4-like E3 ubiquitin-protein ligase WWP2 T469M, O00308",-0.096 ± 0.053
14,"NEDD4-like E3 ubiquitin-protein ligase WWP2 D492P, O00308",-0.249 ± 0.076
15,"NEDD4-like E3 ubiquitin-protein ligase WWP2 N466S, O00308",-0.175 ± 0.049
16,"NEDD4-like E3 ubiquitin-protein ligase WWP2 G486I, O00308",-0.028 ± 0.072
17,"NEDD4-like E3 ubiquitin-protein ligase WWP2 P448Y, O00308",-0.149 ± 0.056
18,"NEDD4-like E3 ubiquitin-protein ligase WWP2 H465P, O00308",-0.556 ± 0.088
19,"NEDD4-like E3 ubiquitin-protein ligase WWP2 R468C, O00308",-0.184 ± 0.06
20,"NEDD4-like E3 ubiquitin-protein ligase WWP2 T455A, O00308",-0.659 ± 0.061
21,"Transcription factor SOX-11 I99Y, P35716",-0.01 ± 0.053
22,"NEDD4-like E3 ubiquitin-protein ligase WWP2 Q485G, O00308",-0.004 ± 0.035
23,"NEDD4-like E3 ubiquitin-protein ligase WWP2 F462N, O00308",-0.945 ± 0.082

row,Substance,abundance fitness
1,"NEDD4-like E3 ubiquitin-protein ligase WWP2 G478H, O00308",-0.045 ± 0.069
2,"NEDD4-like E3 ubiquitin-protein ligase WWP2 S487A, O00308",-0.034 ± 0.055
3,"NEDD4-like E3 ubiquitin-protein ligase WWP2 I441N, O00308",0.137 ± 0.071
4,"NEDD4-like E3 ubiquitin-protein ligase WWP2 T469E, O00308",-0.228 ± 0.034
5,"NEDD4-like E3 ubiquitin-protein ligase WWP2 M452W, O00308",-0.194 ± 0.057
6,"NEDD4-like E3 ubiquitin-protein ligase WWP2 E451I, O00308",-0.503 ± 0.091
7,"NEDD4-like E3 ubiquitin-protein ligase WWP2 S456W, O00308",-0.192 ± 0.047
8,"NEDD4-like E3 ubiquitin-protein ligase WWP2 A490D, O00308",0.001 ± 0.061
9,"NEDD4-like E3 ubiquitin-protein ligase WWP2 E457F, O00308",-0.253 ± 0.074
10,"NEDD4-like E3 ubiquitin-protein ligase WWP2 P444H, O00308",0.015 ± 0.037
11,"NEDD4-like E3 ubiquitin-protein ligase WWP2 P444A, O00308",-0.089 ± 0.059
12,"NEDD4-like E3 ubiquitin-protein ligase WWP2 F472S, O00308",-0.351 ± 0.048
13,"NEDD4-like E3 ubiquitin-protein ligase WWP2 E443M, O00308",-0.14 ± 0.055
14,"NEDD4-like E3 ubiquitin-protein ligase WWP2 G478F, O00308",-0.014 ± 0.046
15,"NEDD4-like E3 ubiquitin-protein ligase WWP2 M440A, O00308",-0.137 ± 0.1
16,"NEDD4-like E3 ubiquitin-protein ligase WWP2 G486Q, O00308",-0.023 ± 0.054
17,"NEDD4-like E3 ubiquitin-protein ligase WWP2 D492R, O00308",-0.223 ± 0.051
18,"NEDD4-like E3 ubiquitin-protein ligase WWP2 D474T, O00308",-0.442 ± 0.079
19,"NEDD4-like E3 ubiquitin-protein ligase WWP2 Q442G, O00308",-0.071 ± 0.052
20,"NEDD4-like E3 ubiquitin-protein ligase WWP2 R460Y, O00308",-0.558 ± 0.12
21,"NEDD4-like E3 ubiquitin-protein ligase WWP2 F472E, O00308",-0.357 ± 0.061
22,"NEDD4-like E3 ubiquitin-protein ligase WWP2 V459D, O00308",0.05 ± 0.062
23,"NEDD4-like E3 ubiquitin-protein ligase WWP2 G449L, O00308",-0.174 ± 0.038

row,Substance,abundance fitness
1,"NEDD4-like E3 ubiquitin-protein ligase WWP2 K473P, O00308",-1.11 ± 0.12
2,"NEDD4-like E3 ubiquitin-protein ligase WWP2 K453I, O00308",-0.167 ± 0.053
3,"NEDD4-like E3 ubiquitin-protein ligase WWP2 G458N, O00308",-0.308 ± 0.093
4,"NEDD4-like E3 ubiquitin-protein ligase WWP2 G458I, O00308",-1.18 ± 0.19
5,"Transcription factor SOX-11 M68L, P35716",0.093 ± 0.059
6,"NEDD4-like E3 ubiquitin-protein ligase WWP2 F462P, O00308",-0.605 ± 0.099
7,"NEDD4-like E3 ubiquitin-protein ligase WWP2 T471L, O00308",-0.887 ± 0.043
8,"NEDD4-like E3 ubiquitin-protein ligase WWP2 T483L, O00308",-0.039 ± 0.044
9,"NEDD4-like E3 ubiquitin-protein ligase WWP2 D464I, O00308",-1.28 ± 0.14
10,"NEDD4-like E3 ubiquitin-protein ligase WWP2 E480P, O00308",-0.141 ± 0.062
11,"NEDD4-like E3 ubiquitin-protein ligase WWP2 Y461N, O00308",-0.752 ± 0.052
12,"NEDD4-like E3 ubiquitin-protein ligase WWP2 G489T, O00308",0.002 ± 0.066
13,"NEDD4-like E3 ubiquitin-protein ligase WWP2 E451S, O00308",-0.072 ± 0.032
14,"NEDD4-like E3 ubiquitin-protein ligase WWP2 V459Q, O00308",-0.019 ± 0.069
15,"NEDD4-like E3 ubiquitin-protein ligase WWP2 P477V, O00308",0.037 ± 0.034
16,"NEDD4-like E3 ubiquitin-protein ligase WWP2 K484R, O00308",-0.062 ± 0.038
17,"NEDD4-like E3 ubiquitin-protein ligase WWP2 L446T, O00308",-0.384 ± 0.071
18,"NEDD4-like E3 ubiquitin-protein ligase WWP2 S456A, O00308",-0.066 ± 0.048
19,"NEDD4-like E3 ubiquitin-protein ligase WWP2 Y454Q, O00308",0.008 ± 0.071
20,"Transcription factor SOX-11 A77S, P35716",0.01 ± 0.044
21,"NEDD4-like E3 ubiquitin-protein ligase WWP2 G458W, O00308",-0.461 ± 0.045
22,"NEDD4-like E3 ubiquitin-protein ligase WWP2 M452Q, O00308",-0.107 ± 0.063
23,"NEDD4-like E3 ubiquitin-protein ligase WWP2 M452T, O00308",-0.017 ± 0.033

row,Substance,abundance fitness
1,"NEDD4-like E3 ubiquitin-protein ligase WWP2 N466M, O00308",-0.188 ± 0.07
2,"NEDD4-like E3 ubiquitin-protein ligase WWP2 F462C, O00308",-0.88 ± 0.054
3,"NEDD4-like E3 ubiquitin-protein ligase WWP2 S456K, O00308",-0.039 ± 0.054
4,"NEDD4-like E3 ubiquitin-protein ligase WWP2 P444M, O00308",0.09 ± 0.062
5,"NEDD4-like E3 ubiquitin-protein ligase WWP2 V459S, O00308",-0.097 ± 0.045
6,"NEDD4-like E3 ubiquitin-protein ligase WWP2 P475T, O00308",-1.36 ± 0.2
7,"NEDD4-like E3 ubiquitin-protein ligase WWP2 Q442E, O00308",0.069 ± 0.04
8,"NEDD4-like E3 ubiquitin-protein ligase WWP2 G482V, O00308",-0.108 ± 0.043
9,"NEDD4-like E3 ubiquitin-protein ligase WWP2 L446D, O00308",-0.556 ± 0.048
10,"NEDD4-like E3 ubiquitin-protein ligase WWP2 Y461Q, O00308",-0.671 ± 0.079
11,"NEDD4-like E3 ubiquitin-protein ligase WWP2 Y461A, O00308",-0.669 ± 0.072
12,"NEDD4-like E3 ubiquitin-protein ligase WWP2 S456D, O00308",0.085 ± 0.071
13,"NEDD4-like E3 ubiquitin-protein ligase WWP2 Y461C, O00308",-0.538 ± 0.061
14,"NEDD4-like E3 ubiquitin-protein ligase WWP2 F479P, O00308",-0.003 ± 0.054
15,"NEDD4-like E3 ubiquitin-protein ligase WWP2 V459E, O00308",0.085 ± 0.036
16,"NEDD4-like E3 ubiquitin-protein ligase WWP2 Y491F, O00308",0.035 ± 0.07
17,"NEDD4-like E3 ubiquitin-protein ligase WWP2 F462I, O00308",-1.03 ± 0.16
18,"NEDD4-like E3 ubiquitin-protein ligase WWP2 V459H, O00308",-0.103 ± 0.064
19,"NEDD4-like E3 ubiquitin-protein ligase WWP2 K453Y, O00308",-0.153 ± 0.042
20,"NEDD4-like E3 ubiquitin-protein ligase WWP2 G482A, O00308",-0.033 ± 0.042
